For the assay, the target named is T1, Recombinant UL141 ectodomain (soluble, released from the Fc fusion), Q6RJQ3.
T1 chain: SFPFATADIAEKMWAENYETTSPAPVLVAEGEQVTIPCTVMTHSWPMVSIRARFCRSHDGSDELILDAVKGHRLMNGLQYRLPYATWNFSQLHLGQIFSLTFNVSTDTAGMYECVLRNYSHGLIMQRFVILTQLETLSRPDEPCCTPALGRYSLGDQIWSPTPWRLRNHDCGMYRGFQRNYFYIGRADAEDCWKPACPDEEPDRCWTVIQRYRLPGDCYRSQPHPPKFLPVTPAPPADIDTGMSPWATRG
Put plainly: SPR. To be noted: chain shown with the change.

B1: Human TRAIL-R2-Fc fusion protein (wild type), O14763 M152A; R154A; K155A (protein)
chain: QQDLAPQQRAAPQQKRSSPSEGLCPPGHHISEDGRDCISCKYGQDYSTHWNDLLFCLRCTRCDSGEVELSPCTTTRNTVCQCEEGTFREEDSPEACAACRTGCPRGMVKVGDCTPWSDIECVHKESG
Regarding B1, the Kd (usually the free concentration of one partner at which half of the binding sites on the other are occupied at equilibrium, for simple one-to-one binding) is 7 nM.

B2: Human TRAIL-R2-Fc fusion protein (wild type), O14763 R154A (protein)
chain: QQDLAPQQRAAPQQKRSSPSEGLCPPGHHISEDGRDCISCKYGQDYSTHWNDLLFCLRCTRCDSGEVELSPCTTTRNTVCQCEEGTFREEDSPEMCAKCRTGCPRGMVKVGDCTPWSDIECVHKESG
For B2, the Kd came to 6 nM.

B3: Human TRAIL-R2-Fc fusion protein (wild type), O14763 P150A (protein)
chain: QQDLAPQQRAAPQQKRSSPSEGLCPPGHHISEDGRDCISCKYGQDYSTHWNDLLFCLRCTRCDSGEVELSPCTTTRNTVCQCEEGTFREEDSAEMCRKCRTGCPRGMVKVGDCTPWSDIECVHKESG
As for B3, the Kd was determined as 8 nM.

B4: Human TRAIL-R2-Fc fusion protein (wild type), O14763 K155A (protein)
chain: QQDLAPQQRAAPQQKRSSPSEGLCPPGHHISEDGRDCISCKYGQDYSTHWNDLLFCLRCTRCDSGEVELSPCTTTRNTVCQCEEGTFREEDSPEMCRACRTGCPRGMVKVGDCTPWSDIECVHKESG
As to B4, the Kd worked out at 8 nM.

B5: Human TRAIL-R2-Fc fusion protein (wild type), O14763 M152A (protein)
chain: QQDLAPQQRAAPQQKRSSPSEGLCPPGHHISEDGRDCISCKYGQDYSTHWNDLLFCLRCTRCDSGEVELSPCTTTRNTVCQCEEGTFREEDSPEACRKCRTGCPRGMVKVGDCTPWSDIECVHKESG
As to B5, the Kd was 7 nM.

For the origin of these results see article PMC3605307.
